According to IntAct's records for PubMed 11872753:

B1: Acid-sensing ion channel 3 (Rattus norvegicus (Rat)), O35240 (parent)
chain: MKPRSGLEEAQRRQASDIRVFASSCTMHGLGHIFGPGGLTLRRGLWATAVLLSLAAFLYQVAERVRYYGEFHHKTTLDERESHQLTFPAVTLCNINPLRRSRLTPNDLHWAGTALLGLDPAEHAAYLRALGQPPAPPGFMPSPTFDMAQLYARAGHSLEDMLLDCRYRGQPCGPENFTVIFTRMGQCYTFNSGAHGAELLTTPKGGAGNGLEIMLDVQQEEYLPIWKDMEETPFEVGIRVQIHSQDEPPAIDQLGFGAAPGHQTFVSCQQQQLSFLPPPWGDCNTASLDPDDFDPEPSDPLGSPRPRPSPPYSLIGCRLACESRYVARKCGCRMMHMPGNSPVCSPQQYKDCASPALDAMLRKDTCVCPNPCATTRYAKELSMVRIPSRASARYLARKYNRSESYITENVLVLDIFFEALNYEAVEQKAAYEVSELLGDIGGQMGLFIGASLLTILEILDYLCEVFQDRVLGYFWNRRSAQKRSGNTLLQEELNGHRTHVPHLSLGPRPPTTPCAVTKTLSASHRTCYLVTRL
partner: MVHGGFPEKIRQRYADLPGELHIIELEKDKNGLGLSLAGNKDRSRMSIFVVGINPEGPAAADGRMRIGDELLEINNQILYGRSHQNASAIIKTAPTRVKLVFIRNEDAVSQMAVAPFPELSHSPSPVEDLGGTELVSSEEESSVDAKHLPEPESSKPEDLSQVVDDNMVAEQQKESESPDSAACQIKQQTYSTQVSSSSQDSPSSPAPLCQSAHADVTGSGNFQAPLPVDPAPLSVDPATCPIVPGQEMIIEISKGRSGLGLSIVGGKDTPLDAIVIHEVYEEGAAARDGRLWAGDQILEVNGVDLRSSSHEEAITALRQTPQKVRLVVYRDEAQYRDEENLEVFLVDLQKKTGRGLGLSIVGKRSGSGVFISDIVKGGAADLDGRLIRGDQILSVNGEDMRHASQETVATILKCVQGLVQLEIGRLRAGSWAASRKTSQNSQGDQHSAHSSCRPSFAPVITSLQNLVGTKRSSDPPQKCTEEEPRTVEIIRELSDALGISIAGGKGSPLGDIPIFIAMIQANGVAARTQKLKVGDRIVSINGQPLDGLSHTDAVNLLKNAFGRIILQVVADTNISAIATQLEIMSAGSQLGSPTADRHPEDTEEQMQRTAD

Variants of: B1
Conditions: with Patj

Row | effect of a mutation on the interaction | Variant
1 | disrupting interaction | MKPRSGLEEAQRRQASDIRVFASSCTMHGLGHIFGPGGLTLRRGLWATAVLLSLAAFLYQVAERVRYYGEFHHKTTLDERESHQLTFPAVTLCNINPLRRSRLTPNDLHWAGTALLGLDPAEHAAYLRALGQPPAPPGFMPSPTFDMAQLYARAGHSLEDMLLDCRYRGQPCGPENFTVIFTRMGQCYTFNSGAHGAELLTTPKGGAGNGLEIMLDVQQEEYLPIWKDMEETPFEVGIRVQIHSQDEPPAIDQLGFGAAPGHQTFVSCQQQQLSFLPPPWGDCNTASLDPDDFDPEPSDPLGSPRPRPSPPYSLIGCRLACESRYVARKCGCRMMHMPGNSPVCSPQQYKDCASPALDAMLRKDTCVCPNPCATTRYAKELSMVRIPSRASARYLARKYNRSESYITENVLVLDIFFEALNYEAVEQKAAYEVSELLGDIGGQMGLFIGASLLTILEILDYLCEVFQDRVLGYFWNRRSAQKRSGNTLLQEELNGHRTHVPHLSLGPRPPTTPCAVTKTLSASHRTCYLVTRF [L533F]
